B1: Serine/threonine-protein kinase Nek2 (Homo sapiens), P51955 (parent)
chain: MPSRAEDYEVLYTIGTGSYGRCQKIRRKSDGKILVWKELDYGSMTEAEKQMLVSEVNLLRELKHPNIVRYYDRIIDRTNTTLYIVMEYCEGGDLASVITKGTKERQYLDEEFVLRVMTQLTLALKECHRRSDGGHTVLHRDLKPANVFLDGKQNVKLGDFGLARILNHDTSFAKTFVGTPYYMSPEQMNRMSYNEKSDIWSLGCLLYELCALMPPFTAFSQKELAGKIREGKFRRIPYRYSDELNEIITRMLNLKDYHRPSVEEILENPLIADLVADEQRRNLERRGRQLGEPEKSQDSSPVLSELKLKEIQLQERERALKAREERLEQKEQELCVRERLAEDKLARAENLLKNYSLLKERKFLSLASNPELLNLPSSVIKKKVHFSGESKENIMRSENSESQLTSKSKCKDLKKRLHAAQLRAQALSDIEKNYQLKSRQILGMR
partner: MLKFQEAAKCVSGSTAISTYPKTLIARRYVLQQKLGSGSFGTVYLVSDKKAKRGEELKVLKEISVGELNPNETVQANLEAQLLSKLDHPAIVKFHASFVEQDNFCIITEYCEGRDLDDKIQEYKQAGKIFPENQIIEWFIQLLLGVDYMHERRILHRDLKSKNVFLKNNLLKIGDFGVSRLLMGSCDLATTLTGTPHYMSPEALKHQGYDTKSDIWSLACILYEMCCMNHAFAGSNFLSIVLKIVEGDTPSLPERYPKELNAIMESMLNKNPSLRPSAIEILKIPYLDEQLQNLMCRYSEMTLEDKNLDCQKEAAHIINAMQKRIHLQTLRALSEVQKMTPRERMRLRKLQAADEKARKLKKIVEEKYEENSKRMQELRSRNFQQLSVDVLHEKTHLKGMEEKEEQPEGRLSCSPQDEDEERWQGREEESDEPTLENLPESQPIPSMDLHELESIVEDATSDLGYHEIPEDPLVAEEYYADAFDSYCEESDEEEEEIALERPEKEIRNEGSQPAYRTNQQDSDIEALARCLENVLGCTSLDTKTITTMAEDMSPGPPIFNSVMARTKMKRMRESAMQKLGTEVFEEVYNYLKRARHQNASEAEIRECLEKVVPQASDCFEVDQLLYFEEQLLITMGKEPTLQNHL

Variants of: B1
Details: with nek11_human NEK11, Q8NG66

effect of a mutation on the interaction	Variant
decreasing interaction	K37R

Variants of: B1
Details: with nek11_human NEK11, Q8NG66
Remark: another data set of the same source

effect of a mutation on the interaction	Variant
increasing interaction	K37R

Source: IntAct's records for PubMed 15161910
